Results reported in US7067277 (H LUNDBECK A S, dated 2006).

B1: Human Gαq/z5 (Ala→Ser substitution at position 171) (other)
chain: MTLESIMACCLSEEAKEARRINDEIERQLRRDKRDARRELKLLLLGTGESGKSTFIKQMRIIHGSGYSDEDKRGFTKLVYQNIFTAMQAMIRAMDTLKIPYKYEHNKAHAQLVREVDVEKVSAFENPYVDAIKSLWNDPGIQECYDRRREYQLSDSTKYYLNDLDRVADPSYLPTQQDVLRVRVPTTGIIEYPFDLQSVIFRMVDVGGQRSERRKWIHCFENVTSIMFLVALSEYDQVLVESDNENRMEESKALFRTIITYPWFQNSSVILFLNKKDLLEEKIMYSHLVDYFPEYDGPQRDAQAAREFILKMFVDLNPDSDKIIYSHFTCATDTENIRFVFAAVKDTILQLNLKYIGLC
B2: C. elegans Gαq/z5 (other)
chain: MACCLSEEAREQKRINQEIEKQLQRDKRNARRELKLLLLGTGESGKSTFIKQMRIIHGQGYSEEDKRAHIRLVYQNVFMAIQSMIRAMDTLDIKFGNESEELQEKAAVVREVDFESVTSFEEPYVSYIKELWEDSGIQECYDRRREYQLTDSAKYYLSDLRRLAVPDYLPTEQDILRVRVPTTGIIEYPFDLEQIIFRMVDVGGQRSERRKWIHCFENVTSIMFLVALSEYDQVLVECDNENRMEESKALFRTIITYPWFTNSSVILFLNKKDLLEEKILYSHLADYFPEYDGPPRDPIAAREFILKMFVDLNPDADKIIYSHFTCATDTENIRFVFAAVKDTILQHNLKYIGLC
B3: C. elegans Gαq/z9 (other)
chain: MACCLSEEAREQKRINQEIEKQLQRDKRNARRELKLLLLGTGESGKSTFIKQMRIIHGQGYSEEDKRAHIRLVYQNVFMAIQSMIRAMDTLDIKFGNESEELQEKAAVVREVDFESVTSFEEPYVSYIKELWEDSGIQECYDRRREYQLTDSAKYYLSDLRRLAVPDYLPTEQDILRVRVPTTGIIEYPFDLEQIIFRMVDVGGQRSERRKWIHCFENVTSIMFLVALSEYDQVLVECDNENRMEESKALFRTIITYPWFTNSSVILFLNKKDLLEEKILYSHLADYFPEYDGPPRDPIAAREFILKMFVDLNPDADKIIYSHFTCATDTENIRFVFAAVKDTILQNNLKYIGLC

Legend:
Experiment in all cases: cell-based or functional assay
[1] = molecular target: human dopamine D3 receptor (human, UniProt P35462 1-400)
human GLP-1 receptor = human GLP-1 receptor (human, UniProt P43220 24-463)
mouse 5HT5A receptor = mouse 5HT5A receptor (mouse, UniProt P30966 1-357)
[2] = molecular target: human dopamine D5 receptor (human, UniProt P21918 1-477)
human MCH receptor = human MCH receptor (human, UniProt Q99705 1-353)
rat GALR2 receptor = molecular target: T1, rat GALR2 receptor (rat, UniProt O08726 1-372)
T1 sequence (looked up): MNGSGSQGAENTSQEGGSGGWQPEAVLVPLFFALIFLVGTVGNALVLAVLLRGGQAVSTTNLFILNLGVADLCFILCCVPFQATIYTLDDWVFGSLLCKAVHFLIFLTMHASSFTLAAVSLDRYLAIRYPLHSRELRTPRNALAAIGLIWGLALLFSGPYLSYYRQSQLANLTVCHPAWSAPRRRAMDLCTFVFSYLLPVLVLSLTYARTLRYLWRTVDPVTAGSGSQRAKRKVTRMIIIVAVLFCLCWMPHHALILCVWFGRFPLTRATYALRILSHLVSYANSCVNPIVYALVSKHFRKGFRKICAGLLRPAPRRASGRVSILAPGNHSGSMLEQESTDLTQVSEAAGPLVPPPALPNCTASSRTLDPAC

[3] = molecular target: T2, human α2B adrenergic receptor (human, UniProt P18089 1-450)
T2 sequence (looked up): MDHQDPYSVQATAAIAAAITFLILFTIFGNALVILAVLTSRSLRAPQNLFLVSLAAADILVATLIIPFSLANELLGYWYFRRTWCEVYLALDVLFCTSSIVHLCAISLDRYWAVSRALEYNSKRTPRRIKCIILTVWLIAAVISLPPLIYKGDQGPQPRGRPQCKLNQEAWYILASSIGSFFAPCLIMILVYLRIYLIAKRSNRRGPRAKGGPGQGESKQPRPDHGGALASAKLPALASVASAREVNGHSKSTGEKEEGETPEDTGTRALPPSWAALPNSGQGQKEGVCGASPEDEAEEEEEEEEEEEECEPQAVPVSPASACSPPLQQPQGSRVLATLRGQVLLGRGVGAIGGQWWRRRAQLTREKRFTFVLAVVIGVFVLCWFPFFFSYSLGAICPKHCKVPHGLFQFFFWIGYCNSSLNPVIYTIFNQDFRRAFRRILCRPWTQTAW

human GALR2 receptor = molecular target: T3, human GALR2 receptor (human, UniProt O43603 1-387)
T3 sequence (looked up): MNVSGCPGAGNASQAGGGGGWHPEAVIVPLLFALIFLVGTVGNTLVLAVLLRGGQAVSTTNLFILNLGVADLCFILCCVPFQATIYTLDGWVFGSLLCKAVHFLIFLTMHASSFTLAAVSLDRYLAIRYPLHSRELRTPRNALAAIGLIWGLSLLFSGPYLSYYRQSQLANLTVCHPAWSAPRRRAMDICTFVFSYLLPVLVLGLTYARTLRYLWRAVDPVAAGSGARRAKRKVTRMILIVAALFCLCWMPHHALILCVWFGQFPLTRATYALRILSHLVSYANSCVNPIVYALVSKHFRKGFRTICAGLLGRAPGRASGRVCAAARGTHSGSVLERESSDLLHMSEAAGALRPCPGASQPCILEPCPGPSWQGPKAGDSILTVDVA

[4] = molecular target: human kappa opioid receptor (human, UniProt P41145 1-380)
human NPFF1 receptor = human NPFF1 receptor (human, UniProt Q9GZQ6 1-430)
[5] = molecular target: T4, human α2A adrenergic receptor (human, UniProt P08913 1-465)
T4 sequence (looked up): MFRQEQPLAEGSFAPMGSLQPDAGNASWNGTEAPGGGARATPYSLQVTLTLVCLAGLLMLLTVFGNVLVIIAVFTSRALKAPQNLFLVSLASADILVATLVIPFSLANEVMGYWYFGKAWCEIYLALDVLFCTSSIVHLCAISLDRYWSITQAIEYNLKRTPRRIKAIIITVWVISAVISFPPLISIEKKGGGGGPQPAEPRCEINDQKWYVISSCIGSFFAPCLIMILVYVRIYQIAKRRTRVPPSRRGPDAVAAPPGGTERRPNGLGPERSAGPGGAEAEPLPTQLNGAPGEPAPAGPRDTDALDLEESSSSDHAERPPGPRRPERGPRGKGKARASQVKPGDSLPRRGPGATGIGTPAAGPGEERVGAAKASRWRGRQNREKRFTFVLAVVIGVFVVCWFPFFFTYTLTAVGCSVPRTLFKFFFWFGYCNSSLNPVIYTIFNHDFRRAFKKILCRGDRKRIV

human GALR1 receptor = molecular target: T5, human GALR1 receptor (human, UniProt P47211 1-349)
T5 sequence (looked up): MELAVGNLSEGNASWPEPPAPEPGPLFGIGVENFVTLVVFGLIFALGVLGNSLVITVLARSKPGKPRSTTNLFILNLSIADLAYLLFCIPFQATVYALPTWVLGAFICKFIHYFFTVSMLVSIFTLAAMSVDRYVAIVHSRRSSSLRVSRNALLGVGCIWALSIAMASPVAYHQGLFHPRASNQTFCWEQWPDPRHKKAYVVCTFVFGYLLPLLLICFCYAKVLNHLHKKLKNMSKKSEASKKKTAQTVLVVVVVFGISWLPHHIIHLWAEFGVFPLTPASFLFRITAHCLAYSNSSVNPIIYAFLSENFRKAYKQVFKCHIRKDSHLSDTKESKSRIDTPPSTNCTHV

human Y2 receptor = molecular target: T6, human Y2 receptor (human, UniProt P49146 1-381)
T6 sequence (looked up): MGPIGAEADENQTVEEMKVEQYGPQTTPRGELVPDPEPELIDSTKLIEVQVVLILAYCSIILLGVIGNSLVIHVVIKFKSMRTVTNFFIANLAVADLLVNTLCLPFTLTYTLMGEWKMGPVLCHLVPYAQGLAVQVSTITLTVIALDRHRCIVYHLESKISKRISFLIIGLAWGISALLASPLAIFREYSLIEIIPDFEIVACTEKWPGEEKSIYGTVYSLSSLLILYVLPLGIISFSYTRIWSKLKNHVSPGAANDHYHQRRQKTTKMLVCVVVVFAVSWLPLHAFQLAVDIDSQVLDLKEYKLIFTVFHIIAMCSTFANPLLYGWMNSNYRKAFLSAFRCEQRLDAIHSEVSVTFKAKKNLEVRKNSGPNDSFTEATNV

human dopamine D5 receptor, sequence (P21918 whole entry): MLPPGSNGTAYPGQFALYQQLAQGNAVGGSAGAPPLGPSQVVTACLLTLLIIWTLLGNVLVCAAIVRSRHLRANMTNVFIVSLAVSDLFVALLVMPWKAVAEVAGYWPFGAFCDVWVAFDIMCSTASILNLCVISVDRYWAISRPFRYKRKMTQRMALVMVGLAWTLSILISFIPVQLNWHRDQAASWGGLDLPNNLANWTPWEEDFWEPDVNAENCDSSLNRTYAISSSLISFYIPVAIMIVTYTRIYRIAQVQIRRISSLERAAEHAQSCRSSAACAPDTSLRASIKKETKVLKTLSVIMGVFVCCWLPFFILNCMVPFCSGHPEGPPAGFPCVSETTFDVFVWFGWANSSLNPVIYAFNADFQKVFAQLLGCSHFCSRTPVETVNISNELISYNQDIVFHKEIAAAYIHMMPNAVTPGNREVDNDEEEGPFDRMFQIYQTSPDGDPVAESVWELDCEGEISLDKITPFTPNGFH
human dopamine D3 receptor, sequence (P35462 whole entry): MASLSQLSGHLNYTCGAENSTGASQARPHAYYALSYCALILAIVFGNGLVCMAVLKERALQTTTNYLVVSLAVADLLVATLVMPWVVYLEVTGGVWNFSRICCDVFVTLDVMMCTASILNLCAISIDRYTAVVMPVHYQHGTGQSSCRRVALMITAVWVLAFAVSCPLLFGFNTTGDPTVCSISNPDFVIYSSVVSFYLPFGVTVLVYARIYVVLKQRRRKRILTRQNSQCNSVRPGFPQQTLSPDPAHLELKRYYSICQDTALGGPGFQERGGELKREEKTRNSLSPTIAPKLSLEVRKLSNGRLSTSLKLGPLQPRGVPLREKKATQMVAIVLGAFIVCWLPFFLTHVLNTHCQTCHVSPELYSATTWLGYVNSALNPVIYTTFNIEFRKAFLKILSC
mouse 5HT5A receptor, sequence (P30966 whole entry): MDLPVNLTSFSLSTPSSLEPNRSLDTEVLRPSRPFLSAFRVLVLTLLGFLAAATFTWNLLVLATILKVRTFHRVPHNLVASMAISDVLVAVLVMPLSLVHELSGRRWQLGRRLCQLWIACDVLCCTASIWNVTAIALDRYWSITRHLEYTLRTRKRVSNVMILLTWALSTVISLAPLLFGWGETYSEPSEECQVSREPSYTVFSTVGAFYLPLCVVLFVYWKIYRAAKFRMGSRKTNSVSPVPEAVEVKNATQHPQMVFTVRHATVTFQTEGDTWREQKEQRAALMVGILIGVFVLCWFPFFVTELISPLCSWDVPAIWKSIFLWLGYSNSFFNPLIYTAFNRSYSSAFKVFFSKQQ
human NPFF1 receptor, sequence (Q9GZQ6 whole entry): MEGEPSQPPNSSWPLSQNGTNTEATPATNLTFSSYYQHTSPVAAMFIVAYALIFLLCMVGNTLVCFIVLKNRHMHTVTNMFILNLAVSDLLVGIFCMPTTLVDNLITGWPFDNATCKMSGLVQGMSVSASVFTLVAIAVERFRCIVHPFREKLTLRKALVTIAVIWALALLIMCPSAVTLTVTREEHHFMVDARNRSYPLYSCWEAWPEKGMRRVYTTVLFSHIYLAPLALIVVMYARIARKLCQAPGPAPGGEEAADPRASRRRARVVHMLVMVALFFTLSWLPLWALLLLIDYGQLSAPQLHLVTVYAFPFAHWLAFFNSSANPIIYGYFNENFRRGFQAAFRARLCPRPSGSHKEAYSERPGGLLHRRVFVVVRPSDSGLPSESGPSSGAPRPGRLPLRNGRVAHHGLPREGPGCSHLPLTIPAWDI
human MCH receptor, sequence (Q99705 whole entry): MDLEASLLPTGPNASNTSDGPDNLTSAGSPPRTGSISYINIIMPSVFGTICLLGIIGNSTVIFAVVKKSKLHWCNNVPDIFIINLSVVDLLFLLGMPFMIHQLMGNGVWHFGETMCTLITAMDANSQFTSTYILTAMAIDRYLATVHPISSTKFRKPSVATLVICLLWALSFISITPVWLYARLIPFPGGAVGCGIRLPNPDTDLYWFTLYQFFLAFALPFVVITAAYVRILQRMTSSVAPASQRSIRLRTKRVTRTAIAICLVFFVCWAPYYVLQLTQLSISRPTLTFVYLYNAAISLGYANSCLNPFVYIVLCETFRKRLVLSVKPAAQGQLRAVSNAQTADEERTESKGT
human kappa opioid receptor, sequence (P41145 whole entry): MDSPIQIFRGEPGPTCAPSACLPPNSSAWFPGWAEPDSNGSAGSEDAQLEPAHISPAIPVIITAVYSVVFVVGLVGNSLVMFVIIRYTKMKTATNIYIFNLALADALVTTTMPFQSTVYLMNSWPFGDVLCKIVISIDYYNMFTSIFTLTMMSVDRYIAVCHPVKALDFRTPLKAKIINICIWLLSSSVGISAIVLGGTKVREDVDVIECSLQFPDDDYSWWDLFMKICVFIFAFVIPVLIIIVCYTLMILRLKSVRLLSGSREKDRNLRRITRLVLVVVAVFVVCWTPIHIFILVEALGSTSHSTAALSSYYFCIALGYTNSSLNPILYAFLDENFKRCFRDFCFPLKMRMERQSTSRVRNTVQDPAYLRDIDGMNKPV

Row | Binder | max Ca2+ signal, COS-7, FLIPR; agonist DA [1] [fluorescence units] | max Ca2+ signal, COS-7, FLIPR; agonist GLP-1 (human GLP-1 receptor) [fluorescence units] | max Ca2+ signal, COS-7, FLIPR; agonist 5HT (mouse 5HT5A receptor) [fluorescence units] | max Ca2+ signal, COS-7, FLIPR; agonist DA [2] [fluorescence units] | max Ca2+ signal, COS-7, FLIPR; agonist MCH (human MCH receptor) [fluorescence units] | max Ca2+ signal, COS-7, FLIPR; agonist GAL (rat GALR2 receptor) [fluorescence units] | max Ca2+ signal, COS-7, FLIPR; agonist NE [3] [fluorescence units] | max Ca2+ signal, COS-7, FLIPR; agonist GAL (human GALR2 receptor) [fluorescence units] | max Ca2+ signal, COS-7, FLIPR; agonist U-69593 [4] [fluorescence units] | max Ca2+ signal, COS-7, FLIPR; agonist NPFF (human NPFF1 receptor) [fluorescence units] | max Ca2+ signal, COS-7, FLIPR; agonist NE [5] [fluorescence units] | max Ca2+ signal, COS-7, FLIPR; agonist GAL (human GALR1 receptor) [fluorescence units] | max Ca2+ signal, COS-7, FLIPR; agonist NPY (human Y2 receptor) [fluorescence units]
1 | B1 | 0 | 287 | 0 | 782 | 783 | 4860 | 4520 | 5990 | 7860 | 4720 | 10900 | 4060 | 10900
2 | B2 | 0 | 131 | 351 | 657 | 2700 | 4200 | 4980 | 5470 | 5980 | 6590 | 7580 | 7650 | 7710
3 | B3 | 121 | 135 | 270 | 797 | 3330 | 4470 | 5140 | 4900 | 3470 | 2970 | 3040 | 8490 | 5390
